From PMC314469, “Protein Interaction Networks by Proteome Peptide Scanning” (PLoS Biology, 2004)

Key:
Test in all cases: SPOT array
[1] = biological target: T1, Boi1 SH3 (BOI1_YEAST), P38041
T1 chain: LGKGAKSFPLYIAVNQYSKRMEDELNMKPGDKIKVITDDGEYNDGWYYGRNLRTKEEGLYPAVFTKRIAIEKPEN

[2] = biological target: T2, Yfr024 SH3 (LSB3_YEAST), P43603
T2 chain: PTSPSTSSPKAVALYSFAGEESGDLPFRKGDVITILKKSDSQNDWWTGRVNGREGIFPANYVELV

[3] = biological target: T3, Boi2 SH3 (BOI2_YEAST), P39969
T3 chain: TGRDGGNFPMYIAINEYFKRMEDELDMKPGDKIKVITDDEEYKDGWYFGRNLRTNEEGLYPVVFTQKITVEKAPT

[4] = biological target: T4, Yhr016c SH3 (YSC84_YEAST), P32793
T4 chain: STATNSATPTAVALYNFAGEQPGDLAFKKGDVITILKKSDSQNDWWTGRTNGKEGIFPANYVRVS

[5] = biological target: T5, Rvs167 SH3 (RV167_YEAST), P39743
T5 chain: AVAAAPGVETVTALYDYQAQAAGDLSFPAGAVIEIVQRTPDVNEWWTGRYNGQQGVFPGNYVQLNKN

## NNNPVPPQKINQPP [YDL203C 198-211]
[1]
  normalised SPOT signal, Boehringer light units (BLU); mean over the file's lines of this peptide: 21.2
[2]
  normalised SPOT signal, Boehringer light units (BLU); mean over the file's lines of this peptide: 212
[3]
  normalised SPOT signal, Boehringer light units (BLU); mean over the file's lines of this peptide: 43.4
[4]
  normalised SPOT signal, Boehringer light units (BLU); mean over the file's lines of this peptide: 20.2
[5]
  normalised SPOT signal, Boehringer light units (BLU); mean over the file's lines of this peptide: 46.9

## NNTPIVPEKFSNDL [YKR004C 249-262]
[1]
  normalised SPOT signal, Boehringer light units (BLU); mean over the file's lines of this peptide: 69.3
[2]
  normalised SPOT signal, Boehringer light units (BLU); mean over the file's lines of this peptide: 194
[3]
  normalised SPOT signal, Boehringer light units (BLU); mean over the file's lines of this peptide: 27.9
[4]
  normalised SPOT signal, Boehringer light units (BLU); mean over the file's lines of this peptide: 272
[5]
  normalised SPOT signal, Boehringer light units (BLU); mean over the file's lines of this peptide: 3.8

## NPPPVPPPRNVTAM [YNL176C 548-561]
[1]
  normalised SPOT signal, Boehringer light units (BLU); mean over the file's lines of this peptide: 180
[2]
  normalised SPOT signal, Boehringer light units (BLU); mean over the file's lines of this peptide: 14200
[3]
  normalised SPOT signal, Boehringer light units (BLU); mean over the file's lines of this peptide: 42.3
[4]
  normalised SPOT signal, Boehringer light units (BLU); mean over the file's lines of this peptide: 12200
[5]
  normalised SPOT signal, Boehringer light units (BLU); mean over the file's lines of this peptide: 1190

## NQAPLEPLKPTATG [YIR006C 229-242]
[1]
  normalised SPOT signal, Boehringer light units (BLU); mean over the file's lines of this peptide: 115
[2]
  normalised SPOT signal, Boehringer light units (BLU); mean over the file's lines of this peptide: 25.1
[3]
  normalised SPOT signal, Boehringer light units (BLU); mean over the file's lines of this peptide: 14.5
[4]
  normalised SPOT signal, Boehringer light units (BLU); mean over the file's lines of this peptide: 208
[5]
  normalised SPOT signal, Boehringer light units (BLU); mean over the file's lines of this peptide: 37.7

## NRKPAEPTKPNNLD [YML075C 1024-1037]
[1]
  normalised SPOT signal, Boehringer light units (BLU); mean over the file's lines of this peptide: 51.4
[2]
  normalised SPOT signal, Boehringer light units (BLU); mean over the file's lines of this peptide: 292
[3]
  normalised SPOT signal, Boehringer light units (BLU); mean over the file's lines of this peptide: 96.2
[4]
  normalised SPOT signal, Boehringer light units (BLU); mean over the file's lines of this peptide: 234
[5]
  normalised SPOT signal, Boehringer light units (BLU); mean over the file's lines of this peptide: 91.3

## NSSPMSPLKEKYVL [YOR299W 430-443]
[1]
  normalised SPOT signal, Boehringer light units (BLU); mean over the file's lines of this peptide: 42.6
[2]
  normalised SPOT signal, Boehringer light units (BLU); mean over the file's lines of this peptide: 282
[3]
  normalised SPOT signal, Boehringer light units (BLU); mean over the file's lines of this peptide: 65.1
[4]
  normalised SPOT signal, Boehringer light units (BLU); mean over the file's lines of this peptide: 442
[5]
  normalised SPOT signal, Boehringer light units (BLU); mean over the file's lines of this peptide: 69.2

## NSLPSSPKKQPARN [YCL063W 173-186]
[1]
  normalised SPOT signal, Boehringer light units (BLU); mean over the file's lines of this peptide: 57.1
[2]
  normalised SPOT signal, Boehringer light units (BLU); mean over the file's lines of this peptide: 331
[3]
  normalised SPOT signal, Boehringer light units (BLU); mean over the file's lines of this peptide: 31.8
[4]
  normalised SPOT signal, Boehringer light units (BLU); mean over the file's lines of this peptide: 199
[5]
  normalised SPOT signal, Boehringer light units (BLU); mean over the file's lines of this peptide: 211

## NSMPNVPVRLKLHT [YKL208W 152-165]
[1]
  normalised SPOT signal, Boehringer light units (BLU); mean over the file's lines of this peptide: 5300
[2]
  normalised SPOT signal, Boehringer light units (BLU); mean over the file's lines of this peptide: 20400
[3]
  normalised SPOT signal, Boehringer light units (BLU); mean over the file's lines of this peptide: 2750
[4]
  normalised SPOT signal, Boehringer light units (BLU); mean over the file's lines of this peptide: 11000
[5]
  normalised SPOT signal, Boehringer light units (BLU); mean over the file's lines of this peptide: 2480

## NSNPIDPLRSDRSV [YNL144C 502-515]
[1]
  normalised SPOT signal, Boehringer light units (BLU); mean over the file's lines of this peptide: 274
[2]
  normalised SPOT signal, Boehringer light units (BLU); mean over the file's lines of this peptide: 301
[3]
  normalised SPOT signal, Boehringer light units (BLU); mean over the file's lines of this peptide: 45.3
[4]
  normalised SPOT signal, Boehringer light units (BLU); mean over the file's lines of this peptide: 67.7
[5]
  normalised SPOT signal, Boehringer light units (BLU); mean over the file's lines of this peptide: 22.8

## NSPPTTPSKDESGP [YMR190C 45-58]
[1]
  normalised SPOT signal, Boehringer light units (BLU); mean over the file's lines of this peptide: 43.4
[2]
  normalised SPOT signal, Boehringer light units (BLU); mean over the file's lines of this peptide: 101
[3]
  normalised SPOT signal, Boehringer light units (BLU); mean over the file's lines of this peptide: 29.9
[4]
  normalised SPOT signal, Boehringer light units (BLU); mean over the file's lines of this peptide: 293
[5]
  normalised SPOT signal, Boehringer light units (BLU); mean over the file's lines of this peptide: 40.1

## NSPPVYPKRIRHFE [YDR061W 22-35]
[1]
  normalised SPOT signal, Boehringer light units (BLU); mean over the file's lines of this peptide: 8630
[2]
  normalised SPOT signal, Boehringer light units (BLU); mean over the file's lines of this peptide: 23100
[3]
  normalised SPOT signal, Boehringer light units (BLU); mean over the file's lines of this peptide: 3110
[4]
  normalised SPOT signal, Boehringer light units (BLU); mean over the file's lines of this peptide: 22100
[5]
  normalised SPOT signal, Boehringer light units (BLU); mean over the file's lines of this peptide: 3590

## NSRPQQPERRRFNS [YOR042W 296-309]
[1]
  normalised SPOT signal, Boehringer light units (BLU); mean over the file's lines of this peptide: 7150
[2]
  normalised SPOT signal, Boehringer light units (BLU); mean over the file's lines of this peptide: 40900
[3]
  normalised SPOT signal, Boehringer light units (BLU); mean over the file's lines of this peptide: 2470
[4]
  normalised SPOT signal, Boehringer light units (BLU); mean over the file's lines of this peptide: 14500
[5]
  normalised SPOT signal, Boehringer light units (BLU); mean over the file's lines of this peptide: 3880

## NTVPSTPSRSNSVL [YKL038W 137-150]
[1]
  normalised SPOT signal, Boehringer light units (BLU); mean over the file's lines of this peptide: 45.3
[2]
  normalised SPOT signal, Boehringer light units (BLU); mean over the file's lines of this peptide: 26300
[3]
  normalised SPOT signal, Boehringer light units (BLU); mean over the file's lines of this peptide: 46.6
[4]
  normalised SPOT signal, Boehringer light units (BLU); mean over the file's lines of this peptide: 9290
[5]
  normalised SPOT signal, Boehringer light units (BLU); mean over the file's lines of this peptide: 387

## NVDPASPWRHELLS [YGL107C 76-89]
[1]
  normalised SPOT signal, Boehringer light units (BLU); mean over the file's lines of this peptide: 72.9
[2]
  normalised SPOT signal, Boehringer light units (BLU); mean over the file's lines of this peptide: 63
[3]
  normalised SPOT signal, Boehringer light units (BLU); mean over the file's lines of this peptide: 8.5
[4]
  normalised SPOT signal, Boehringer light units (BLU); mean over the file's lines of this peptide: 271
[5]
  normalised SPOT signal, Boehringer light units (BLU); mean over the file's lines of this peptide: 33.4

## NVQPRKPSRVHSRN [YFR022W 634-647]
[1]
  normalised SPOT signal, Boehringer light units (BLU); mean over the file's lines of this peptide: 899
[2]
  normalised SPOT signal, Boehringer light units (BLU); mean over the file's lines of this peptide: 19900
[3]
  normalised SPOT signal, Boehringer light units (BLU); mean over the file's lines of this peptide: 1310
[4]
  normalised SPOT signal, Boehringer light units (BLU); mean over the file's lines of this peptide: 5260
[5]
  normalised SPOT signal, Boehringer light units (BLU); mean over the file's lines of this peptide: 1900

## NWSPNIPLRYSDFA [YOL017W 129-142]
[1]
  normalised SPOT signal, Boehringer light units (BLU); mean over the file's lines of this peptide: 1070
[2]
  normalised SPOT signal, Boehringer light units (BLU); mean over the file's lines of this peptide: 3720
[3]
  normalised SPOT signal, Boehringer light units (BLU); mean over the file's lines of this peptide: 574
[4]
  normalised SPOT signal, Boehringer light units (BLU); mean over the file's lines of this peptide: 1410
[5]
  normalised SPOT signal, Boehringer light units (BLU); mean over the file's lines of this peptide: 189

## NYAPRLPRRETSSS [YIL061C 231-244]
[1]
  normalised SPOT signal, Boehringer light units (BLU); mean over the file's lines of this peptide: 3860
[2]
  normalised SPOT signal, Boehringer light units (BLU); mean over the file's lines of this peptide: 29100
[3]
  normalised SPOT signal, Boehringer light units (BLU); mean over the file's lines of this peptide: 4640
[4]
  normalised SPOT signal, Boehringer light units (BLU); mean over the file's lines of this peptide: 50300
[5]
  normalised SPOT signal, Boehringer light units (BLU); mean over the file's lines of this peptide: 28000
